From paper PMC8440562, “MAD2L2 dimerization and TRIP13 control shieldin activity in DNA repair” (Nature Communications, 2021)

What was measured:
[1] = target: the molecule itself; experiment: SEC; Superdex-200 in buffer C (25 mM Tris pH 8, 0.3 M NaCl, 10% glycerol, 0.5 mM TCEP, 10 mM MgCl2) + 0.1 mM ATP; proteins incubated 2 h on ice with 2 mM ATP before the run; equimolar in Fig. 3f
MAD2L2^3xMut (E. coli) = target: T1, MAD2L2^3xMut (E. coli) (human, UniProt Q9UI95 1-211, K44A | R124A | A135D); experiment: pull-down; 0.25 uM MBP-SHLD3^28-83 pre-adsorbed on amylose beads, eightfold molar excess of MAD2L2 variant, time course at 4 C in buffer B (10 mM HEPES pH 7.5, 0.15 M NaCl, 5% glycerol, 0.5 mM TCEP); Coomassie SDS-PAGE; details: both partners purified
T1 construct: MAD2L2 (REV7), human, with K44A, R124A and A135D; also called MAD2L2^K44A/R124A/A135D; source: E. coli Rosetta, purified (metal chelating column, PreScission cleavage, SEC); not shown: GST/hexahistidine-MBP fusion-tag, N-terminal, cleaved

MAD2L2^WT (E. coli) = target: T2, MAD2L2^WT (E. coli) (human, UniProt Q9UI95 1-211); experiment: as above; details: both partners purified
T2 construct: MAD2L2 (REV7), human; source: E. coli Rosetta, purified (metal chelating column, PreScission cleavage, SEC); not shown: GST/hexahistidine-MBP fusion-tag, N-terminal, cleaved

MAD2L2^1xMut (E. coli) = target: T3, MAD2L2^1xMut (E. coli) (human, UniProt Q9UI95 1-211, R124A); experiment: as above; details: both partners purified
T3 construct: MAD2L2 (REV7), human, with R124A; also called MAD2L2^R124A; source: E. coli Rosetta, purified (metal chelating column, PreScission cleavage, SEC); not shown: GST/hexahistidine-MBP fusion-tag, N-terminal, cleaved
T3 sequence (Q9UI95 whole entry R124A, the tested form may be a part): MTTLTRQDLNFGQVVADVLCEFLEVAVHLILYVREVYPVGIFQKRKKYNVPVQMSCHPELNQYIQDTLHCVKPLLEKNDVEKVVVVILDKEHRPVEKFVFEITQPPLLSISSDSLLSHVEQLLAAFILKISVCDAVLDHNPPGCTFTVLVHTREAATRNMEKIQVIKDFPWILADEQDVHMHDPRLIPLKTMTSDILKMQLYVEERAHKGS

T1 sequence (Q9UI95 whole entry K44A/R124A/A135D, the tested form may be a part): as the sequence (Q9UI95 whole entry R124A, the tested form may be a part) above, with K44A, A135D counted along it
T2 sequence (Q9UI95 whole entry, the tested form may be a part): as the sequence (Q9UI95 whole entry R124A, the tested form may be a part) above, with A124R counted along it

B1: His6-EGFP-TRIP13^E253Q (enzyme, human, UniProt Q15645 1-432, looked up)
chain: MDEAVGDLKQALPCVAESPTVHVEVHQRGSSTAKKEDINLSVRKLLNRHNIVFGDYTWTEFDEPFLTRNVQSVSIIDTELKVKDSQPIDLSACTVALHIFQLNEDGPSSENLEEETENIIAANHWVLPAAEFHGLWDSLVYDVEVKSHLLDYVMTTLLFSDKNVNSNLITWNRVVLLHGPPGTGKTSLCKALAQKLTIRLSSRYRYGQLIEINSHSLFSKWFSESGKLVTKMFQKIQDLIDDKDALVFVLIDQVESLTAARNACRAGTEPSDAIRVVNAVLTQIDQIKRHSNVVILTTSNITEKIDVAFVDRADIKQYIGPPSAAAIFKIYLSCLEELMKCQIIYPRQQLLTLRELEMIGFIENNVSKLSLLLNDISRKSEGLSGRVLRKLPFLAHALYVQAPTVTIEGFLQALSLAVDKQFEERKKLAAYI
notes: TRIP13, human, with E253Q; printed mass of GFP-TRIP13 75.5 kDa; source: insect cells (Hi5, baculovirus, biGBac), purified
Q: B1 was tested. Which “stoichiometry N” value [1] did it give?
A: 6

B2: TRIP13^E253Q (48.5 kDa form, Fig. 3f) (enzyme, human, UniProt Q15645 1-432, looked up)
chain: MDEAVGDLKQALPCVAESPTVHVEVHQRGSSTAKKEDINLSVRKLLNRHNIVFGDYTWTEFDEPFLTRNVQSVSIIDTELKVKDSQPIDLSACTVALHIFQLNEDGPSSENLEEETENIIAANHWVLPAAEFHGLWDSLVYDVEVKSHLLDYVMTTLLFSDKNVNSNLITWNRVVLLHGPPGTGKTSLCKALAQKLTIRLSSRYRYGQLIEINSHSLFSKWFSESGKLVTKMFQKIQDLIDDKDALVFVLIDQVESLTAARNACRAGTEPSDAIRVVNAVLTQIDQIKRHSNVVILTTSNITEKIDVAFVDRADIKQYIGPPSAAAIFKIYLSCLEELMKCQIIYPRQQLLTLRELEMIGFIENNVSKLSLLLNDISRKSEGLSGRVLRKLPFLAHALYVQAPTVTIEGFLQALSLAVDKQFEERKKLAAYI
notes: TRIP13, human, with E253Q; printed mass 48.5 kDa (291 kDa for hexamer); The printed mass fits TRIP13 without the EGFP fusion; source: insect cells (Hi5, baculovirus, biGBac), purified
Q: B2 was tested. Which “stoichiometry N” value [1] did it give?
A: 6

B3: MBP-SHLD3^28-83 (domain or fragment, human, UniProt Q6ZNX1 28-83, looked up)
chain: QDFPTRPLSRFIPWFPYDGSKLPLRPKRSPPVISEEAAEDVKQYLTISEHDAKSHS
notes: SHLD3, human, residues 28-83; contains only the second RBM; also called SHLD3^28-83 peptide; SHLD3-fragment; source: E. coli Rosetta, purified (metal chelating column, SEC); not shown: hexahistidine-MBP, N-terminal, kept
Q: Does B3 bind (MAD2L2^3xMut (E. coli))?
A: binds

Q: Does B3 bind (MAD2L2^WT (E. coli))?
A: binds

Q: Does B3 bind (MAD2L2^1xMut (E. coli))?
A: binds
